{
  "source": "the DeepSol protein solubility set",
  "data": [
    {"test": "soluble on expression in E. coli; label from the status in PepcDB or PDB records", "values": [
      {"sequence": "MSKDAKSPKKLRSNRAALTHKVGYALRHPERVGPYVRRAGRDAWLRVKHPDHVGYYRAVMASDARRSPEAAVGSRTHDRWLALGQMQFDYLVEHGLRPGHRMLDIGCGNLRGGWRFIDHLDSGHYYGVDISPDILIAAKKTLTERGLQAKLPHLTITGDLRLEFLPDDHFDVVHAHSVFSHSPLNVIDECLAHVGRVLTDTGFFDFTFDRTEGTEHQVLREDFYYRTDTLLTLAAQHNLHARFMEDWEKRPHGQSKIRVSRSPLPSLEHHHHHH", "soluble on expression in E. coli": "not soluble"},
      {"sequence": "MEKETLFIAFSTQKGGAGKTTLTVLVASYLHYVKGMNVAVVDCDYPQHSIAEMRKRDLKTVMEDEHYKLMAYRQLQRIRKKAYPVAESTAEDAVTKADELLEKMPETDIVFFDLPGTVNSTGVLNTLVNMDYVFSPIAADRVVMESTLRFASRLNDTLIATGKTNIKGLYLLWNMVDGREKSELYKVYEQVIGELGLKVLKTFLPDSKRFRRELTGGHRALFRSTLFPADGTLVKGSNLKEITEELLSIIRK", "soluble on expression in E. coli": "not soluble"},
      {"sequence": "MNINKSKKRDSAVDIDNHDPFSVLLMGVDERDGDKGRADSLIYMTVNPKTKTTEMVSIPRDTYTEIIGKGKMDKINHSYAFGGVQMTVDTVENFLDVPVDYFIKVNMESFKDVVDTLGGITVNSTFAFNYDGYSFGKGEITLNGKEALAYTRMRKEDPNGDFGRQNRQRQVIEGIINKGANISSITKFGDMFKVIENNVKTNLTFDDMWDIQSGYKEARSKVIQHELKGDGTKINGIYYYKADESSLSDITAELKESLNKLEHHHHHH", "soluble on expression in E. coli": "soluble"},
      {"sequence": "MSLTDAPDLILHRGLFTTLDRSNPIASAVAISGGRFSAVGHDREVLPLAGPSTKVIDLKGRRVLPGLIDNHLHIIRGGLNFNMELRWDGVRSLADAMNMLKRQVAITPPPQWVRVVGGFTEHQFAEKRLPTIEELNAVAPDTPVFLLHLYDRAILNGAALRAVGYTRDTPEPPGGEITRDANGNPTGLLLAKPNANILYATLAKGPKLPFDYQVNSTRHFMRELNRLGVTGAIDAGGGFQNYPDDYAVIQKLDEEGLLTIRLAYNLFTQKPKGEKDDFLNWTKTSKYKQGNDYFRHNGAGEMLVFSAADFEDFRVPRPDMPPEMEGELEEVVRILVQNKWPWRLHATYDETISRALDVFEKVNQDTPLDGLHWFFDHAETISDRSIDRIAALGGGIAVQHRMAYQGEYFVERYGFGAAEATPPVRRILDSGVKVSAGTDATRVASYNPWVSLSWLVTGRTVGGLRITPQRNCLDRETALRMWTENVTWFSNEEGNKGRVAVGQLADVVVPDRDYFSCSEAEIADTTSLLTMVGGKVVYGAGEFAGLDDSEGHHHHHH", "soluble on expression in E. coli": "not soluble"},
      {"sequence": "MAHHHHHHMKIVPPNFGYVEERIFRCGAPEPCHYAFLASLKLRTCVLLTESHDEAFVRWLRENNVHTVCPLYDGSRMNGLGDKMGCVGYHTGSMTLSEPVVVDILHVLVDPINYPLLLTCSVGRYRTGIVCGCLRKLQGWSLVSILEEYRRYAQDKGRAENEEFIELFDKDLVNLELKDGRRPTILYPYDV", "soluble on expression in E. coli": "soluble"},
      {"sequence": "MGQRYKRMSSTDTNEYMSDNLAKAISNPLFPALDSMLRAGRHISTEDLDNHALLSDFELELSSFYQRYNTELVKAPEGFFYLRPRSTSLIGRSVLSELDMLVGKVLCFLYLSPERLAHEGIFTNQELYDELLALADEKKLMKLVTNRATGSDLDKEKLFEKVRTSLRRLRRLGMIINIGETGKFSISEAVFRFGADVRVGDDIREAQLRLIRDGEAVVHTKEPSQGSLLSEEDQEEQAQEEMTEEGEALEHHHHHH", "soluble on expression in E. coli": "soluble"},
      {"sequence": "MGSDKIHHHHHHMTPKRFAFVIADLYGGGAEKSLLYTAAGLHQRGHTVKVFILRDRIEQPIPDGVTVENLALINRFSKMFSTPLVEKWQAARIARTLDDFAADVVLSCSCDKITRHLRHPNLWFWIKSDISAKFSDPDQRAKAFAKVHRFYTGRNVVAVSQGVKDNLLDVIGLRPAEIRAIYNPYEREPFLRLAEEPAPVPEGEYLINVGTYEPRKRHDRLLRAYKASGVTTPLVLLGKGKGDEEARLRKMIEDMGLAERVILPGYQTNPYPFIRHAKALILTSDAEGLPRALIESLLLGTPVVSVDCPSGPREILAGELADFLVPREDEAALADAIARMDAAPITVTEAHYRPFLKETVLPQFEALARSA", "soluble on expression in E. coli": "not soluble"},
      {"sequence": "MASVTLKNVCKAYGDVLISKNVDLEIQEGEFVVFVGPSGCGKSTLLRCIAGLEDITSGDLYIGEQRMNDVEPSKRGVGMVFQSYALYPHLNLYDNMSFGLKLSKADKSEIKKRVDHAAEILQLSHLLDRQPKALSGGQRQRVAIGRTLVSQPNVFLLDEPLSNLDAALRVQMRSEITKLQRKLGCTMIYVTHDQVEAMTMADKIVVLDAGFVSQVGKPLELYHYPQNRFVAGFIGSPKMNFMSVFIEGVEKDRVQVQLSNGTTFWIPVDGTTVTRGERMSLGIRPEHLVEAEHGDAKIEGKVMIVEKLGNETQVYMNLKGSDSDVIYRQPDTLDVETGDTLTIGIPAHRCHLFHSDGRACRRLHKEKGVDLPA", "soluble on expression in E. coli": "not soluble"},
      {"sequence": "GPGSMVFFGVGATGGTGCGPKQACFPWLENSSATRCQRGGRINLRFMLDLPQGDTEAPSTNQKRAVYAFCPIVDELQVFTLKGAGRVSSLLQKTSSSGQASITPNPAPRYLSVFGFGRSGQKEYPERDVSNSTVVIAMRDIGLCNSPDSVAIVNMVILTIGMHDGKFNYISSDADTKEPDDSESGIPSGNSSGTGSPMESVQPAMVGFRPTCDESDHCIFSPTSPCVGPIRGMKNCGACYNTPDDIEGASIQVWTSYQGTDLERQPLLSGGMDPMGFRKFAGGKFVGNIKYAVSKIENTASGMMPGDETNSTP", "soluble on expression in E. coli": "not soluble"},
      {"sequence": "RGRGAAAWRILRCRRLPEPSPFLTQPNLAQSQPPAPVPVTDPSVTMHPAVFLSLPDLRCSLLLLVTWVFTPVTTEITSLDTENIDEILNNADVALVNFYADWCRFSQMLHPIFEEASDVIKEEFPNENQVVFARVDCDQHSDIAQRYRISKYPTLKLFRNGMMMKREYRGQRSVKALADYIRQQKSDPIQEIRDLAEITTLDRSKRNIIGYFEQKDSDNYRVFERVANILHDDCAFLSAFGDVSKPERYSGDNIIYKPPGHSAPDMVYLGAMTNFDVTYNWIQDKCVPLVREITFENGEELTEEGLPFLILFHMKEDTESLEIFQNEVARQLISEKGTINFLHADCDKFRHPLLHIQKTPADCPVIAIDSFRHMYVFGDFKDVLIPGKLKQFVFDLHSGKLHREFHHGPDPTDTAPGEQAQDVASSPPESSFQKLAPSEYRYTLLRDRDEL", "soluble on expression in E. coli": "soluble"},
      {"sequence": "MSLPISLTDFFPIQGGMATRMVIEGANFGTDLSQIKVFFNQKEASILNVKNSIIYLLVPKLPGNDCIVTVKVGNQEARFTRNFQYIENYSVTTIAGQPGTNLFVEGTLAAAQFGPVQHLAIDDENNLFITERNGSDGKGTCSVLNEESGTVTFLFKASDNLNVPTVNAQTQNVYIPLDGGYTFYELNPVNQWIAKSRLVLHPSKEQQEAGMDDFEINWKHSLAFSRYDNMIYTRSYGGDLIKVDPETRVGQKIGNFFPNTDSFIVAHPTQPEILYIAYAAKHVIYTYNIETGEHKLFAGAFGQSGWNDGIATDAEFNSPRQMSLDMEGNIYIADSGNHCIRMIDKNGIVTTPIGQPGEAGYADGSPDMALLNDPRGVAVNSEGDVYIADLGNRCIRKLTLQLEHHHHHH", "soluble on expression in E. coli": "soluble"},
      {"sequence": "MMRKVALFGFSLLLLAGCSSSDSSLPLFSSLPKGVTLVEEVKAEPGKVMIPYSKYRLDNGLTVILSPDDSDPLVHVDVTYHVGSAREEIGKSGFAHFFEHMMFQGSKHVGDQQHFRLITEAGGSLNGTTNRDRTNYFETVPANQLEKMLWLEADRMGFLLDAVSQRKFEIQRDTVKNERAQNYDNRPYGLMWEKMGEALYPEGHPYSWQTIGYVSDLDRVDVNDLKAFFLRWYGPNNAVLTIGGDLDVKQTLAWVQKYFGSIPKGPDVVDAPKQPARLSEDRFITLEDRVQQPMLLIGWPTQYWGAEDQVALDALASALGSGNNSLLYQELVKTQKAVDAGAFQDCAELACTFYVYAMAPSGAKGKLAPLYQETLQVLEKFKQQGVSASRLEQIIGSEEASAVFALESVKGKVSQLAANQTFFDQPDRIESQLEKIRAVTPESVKQVFTRYLDGQPKVTLSVVAKGKTDFAVRPATFITPERQLPEYQKIGDEQLAYREVKDSFDRSQMPQVAQAVQPRLPKLYDVYFDNGVQLLGTQTRETPTVLIEIQLPAGERQVAMGKEGLANLTASLLQEGSQNRSAEAIQAQLDKLGSSIQVVAGAYSTSIVVSSLKKNLPETLQISQEMLLKPAFKQSDFARLQQQMLQGVVYQHQQPSWLASQATRQVLWGESLFARSGDGTQASISALTLKDVKQFYRQHYTPHGAQIAVVGDISAREIRQQLQFIADWKGEAAPLINPQVVPTLTKQKIYLVDKPGAPQSIIRMVRKGLPFDATGELYLTQLANFNLAGNFNSRINQNLREDKGYTYGAGSYFASNREIGAIVFNAPVRADVTVEAIQEMIKEMHHFSQAGMSEEEMKFLRLAVGQQDALMYETPAQKAQLVSSILTYSLDRDYLQQRNEIVKSVDRSTLNELAAKWFNPEDYQIIVVGDAKRLKPQLEKLGIPLEELEIIR", "soluble on expression in E. coli": "not soluble"},
      {"sequence": "MPAVSKGDGMRGLAVFISDIRNCKSKEAEIKRINKELANIRSKFKGDKALDGYSKKKYVCKLLFIFLLGHDIDFGHMEAVNLLSSNRYTEKQIGYLFISVLVNSNSELIRLINNAIKNDLASRNPTFMGLALHCIANVGSREMAEAFAGEIPKILVAGDTMDSVKQSAALCLLRLYRTSPDLVPMGDWTSRVVHLLNDQHLGVVTAATSLITTLAQKNPEEFKTSVSLAVSRLSRIVTSASTDLQDYTYYFVPAPWLSVKLLRLLQCYPPPEDPAVRGRLTECLETILNKAQEPPKSKKVQHSNAKNAVLFEAISLIIHHDSEPNLLVRACNQLGQFLQHRETNLRYLALESMCTLASSEFSHEAVKTHIETVINALKTERDVSVRQRAVDLLYAMCDRSNAQQIVAEMLSYLETADYSIREEIVLKVAILAEKYAVDYTWYVDTILNLIRIAGDYVSEEVWYRVIQIVINRDDVQGYAAKTVFEALQAPACHENLVKVGGYILGEFGNLIAGDPRSSPLIQFNLLHSKFHLCSVPTRALLLSTYIKFVNLFPEVKATIQDVLRSDSQLKNADVELQQRAVEYLRLSTVASTDILATVLEEMPPFPERESSILAKLKKKKGGS", "soluble on expression in E. coli": "soluble"},
      {"sequence": "GTGGAAATTYGAACAGGTGAATTTGAAGATATTGCGGGCATTACCGACATCTTTAACTTTTATATTGAACAAACCAATGCACGCTTTGAGGAATTTCCATTTACTCTGGAAAATCGTGAGGAATGGTTCTCTCAGTTTTCTAGAACCGCCAAATATCAAATATATGTGGCTGTAGAAAACGGTGTGTTGCAAGGTTTTGCATGTTCCCAAAAGTACAGAGCAATACCAGCTTTTGATGACACTGTAGAGGTGAGCGTTTATCTGGCACAAGAAGCTAAAGGGAAAGGTTTAGGTTCGAAGCTTTATACTCAGCTGTTTTCATCCATTCGTGCTTATGGCGTCCATCGTATATTGTCGGGTGTTGCATTACCAAATGACGCATCAGTAGCATTACATAAACGGTTTGGTTTCCGAGAAGTCGGCATTTCCAACGAATATGCCAAGAAACATGGGCAGTACATCAGCTCGTTGTGGTTAGAAAAAGCGCTTAACGTAGAGTCCGCTTTATAA", "soluble on expression in E. coli": "not soluble"},
      {"sequence": "MGSDKIHHHHHHMNYEGKTKIVKVTGDYALLEFKDDITAGDGLKHDVLTGKGSICAETTAILMKYLSEKGIKTHLVEYIPPRTLKVIPLKMFPLEVVVRLKKAGSFVRRYGGAEGEDLPVPLVEFFIKDDERHDPMVCVDHLEILGIATKKQAEKMKEAAVKITLALKEFFERANFELWDIKYEFGLDKDGNVVLGDEISPDTFRLRKKGEIFDKDVYRRDLGDPLKKYREVLELCRSLNSQ", "soluble on expression in E. coli": "not soluble"},
      {"sequence": "MAGQADNRAPYAKIAAHYTELITSGQLQPGSLLPSIKNLAEEWNVSTATAEKALRKLRNEGLVRGIHGIGTEVLDQPAPMSSGAQRQDRGRRTGSSWGAGERSDSHKAAVVPAPAEVAHALDIEPGSDVIRRSRVYRDRHGIVAHSTSWIPARFGRLIPQLAASERLTGGTSLQLIAQVTGHPITHRVDSASARLLTPEYTRLLELDPENPPAEPVVVMTAKFVDSEGTVVEYGVDLGGPGRTWRTESEVTQ", "soluble on expression in E. coli": "soluble"}
    ]}
  ]
}
